The values below come from US20250270343A1 (Alector, published 2025).

Positions count from the first letter of the chain named.

Usually Kd stands for the concentration at which binding is half-saturated. What is called koff is a measure of how fast the partners let go of each other. The kon is the second-order rate constant of association.

The labels stand for the following.
T1: soluble human GPNMB (recombinant extracellular domain) (human, UniProt Q14956 23-498)
T1 construct: also called huGPNMB; recombinant human GPNMB extracellular domain; not shown: C-terminal polyhistidine or Avi-His tag
T1 sequence: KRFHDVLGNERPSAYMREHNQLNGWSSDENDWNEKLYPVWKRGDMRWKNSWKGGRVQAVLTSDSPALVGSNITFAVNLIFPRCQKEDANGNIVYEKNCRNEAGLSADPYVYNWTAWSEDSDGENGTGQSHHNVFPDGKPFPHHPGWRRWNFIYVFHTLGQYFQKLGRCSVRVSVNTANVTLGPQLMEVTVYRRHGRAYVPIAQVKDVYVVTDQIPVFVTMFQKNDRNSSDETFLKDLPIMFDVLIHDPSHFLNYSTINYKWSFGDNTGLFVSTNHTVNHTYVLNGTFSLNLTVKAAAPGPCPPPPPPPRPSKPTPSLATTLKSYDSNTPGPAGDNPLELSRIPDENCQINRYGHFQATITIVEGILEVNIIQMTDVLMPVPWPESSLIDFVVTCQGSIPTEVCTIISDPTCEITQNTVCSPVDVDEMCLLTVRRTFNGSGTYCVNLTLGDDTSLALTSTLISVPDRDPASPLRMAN

T2: soluble cynomolgus GPNMB (recombinant extracellular domain) (cynomolgus, UniProt Q14956 23-499 (human entry), limits assumed)
T2 chain: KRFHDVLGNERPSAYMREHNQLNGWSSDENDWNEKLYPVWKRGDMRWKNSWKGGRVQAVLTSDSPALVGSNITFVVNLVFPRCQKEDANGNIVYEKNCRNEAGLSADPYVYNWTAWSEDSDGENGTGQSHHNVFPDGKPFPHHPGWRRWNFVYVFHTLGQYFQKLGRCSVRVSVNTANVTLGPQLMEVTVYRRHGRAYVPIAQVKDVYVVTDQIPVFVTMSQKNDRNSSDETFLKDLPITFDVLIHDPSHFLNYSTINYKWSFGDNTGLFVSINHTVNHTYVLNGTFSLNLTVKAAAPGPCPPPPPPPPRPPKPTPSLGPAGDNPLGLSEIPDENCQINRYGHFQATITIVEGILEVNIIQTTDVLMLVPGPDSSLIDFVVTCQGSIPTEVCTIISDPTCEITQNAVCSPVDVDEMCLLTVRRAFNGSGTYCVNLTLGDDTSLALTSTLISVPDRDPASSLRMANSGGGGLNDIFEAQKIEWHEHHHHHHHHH

T3: mouse GPNMB endogenously expressed on B16F10 cells (mouse, UniProt Q99P91 23-574)
T3 construct: whole, on cells; also called moGPNMB
T3 sequence (looked up): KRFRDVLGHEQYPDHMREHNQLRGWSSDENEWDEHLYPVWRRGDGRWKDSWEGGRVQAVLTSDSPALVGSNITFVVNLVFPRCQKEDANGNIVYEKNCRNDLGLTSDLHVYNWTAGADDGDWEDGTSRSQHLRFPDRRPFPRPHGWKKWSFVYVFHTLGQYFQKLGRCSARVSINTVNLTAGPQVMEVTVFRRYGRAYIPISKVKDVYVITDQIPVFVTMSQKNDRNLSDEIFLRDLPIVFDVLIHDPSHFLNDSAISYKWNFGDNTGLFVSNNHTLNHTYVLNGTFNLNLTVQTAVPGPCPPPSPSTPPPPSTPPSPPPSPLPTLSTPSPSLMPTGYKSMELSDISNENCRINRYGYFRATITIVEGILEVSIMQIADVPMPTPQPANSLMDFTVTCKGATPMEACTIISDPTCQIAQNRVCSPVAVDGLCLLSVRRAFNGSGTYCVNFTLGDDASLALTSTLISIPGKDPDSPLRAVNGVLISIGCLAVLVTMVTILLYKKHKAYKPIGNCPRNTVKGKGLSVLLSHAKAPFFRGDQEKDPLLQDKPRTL

B1: anti-GPNMB antibody GPN-37 (antibody, human IgG1, V domains shown)
VH: EVQLVESGGGLVQPGRSLKLSCAASGFTFSSKSGMAWVRQAPTKGLEWVASISNGGGDTYYRDSVKGRFTISRDNAKNTQYLQMDSLRPEDTATYYCARHRDYGYDAYFDYWGQGVMVTVSS
VL: DIQMTQSPASLSASLGETVTIECLASEDIYSSLAWYQQKPGKSPQLLIYDASSLQDGVPSRFSGSESGTQYSLEINSLQSEDAATYFCQQHHDYPYTFGAGTKLELK
notes: chimeric
B2: anti-GPNMB antibody GPN-24 (antibody, human IgG1, V domains shown)
VH: QVQLQQPGAELVKPGASVKMSCKASGYTFTSYWITWVKQRPGQGLEWIGDIHPGSGRSNYNEKFKNKATLNVDTSSSTVYMQLSSLTSEDSAVYYCARDYLFAYWGQGTLVTVSA
VL: DIQMTQSPSSLSASLGERVSLTCRASQEISGYLSWLQQKPDGTIKRLIYSTSTLDSGVPKRFSGSRSGSDYSLTISSLESEDFADYYCLQYTSSPPTFGGGTKLEIK
notes: chimeric
B3: anti-GPNMB antibody GPN-26 (antibody, human IgG1, V domains shown)
VH: EVQLQQSGPELVKPGASVKISCKASGYSFTGYYMNWVRQSPEKSLEWIGEINPSTGITTYNQKFKAKATLTVDKSSNTAFMQLKSLTSEDSAVYYCARPASWFDYWGQGTLVTVSA
VL: B2 VL with Y32H, S50A, T51A, T92A, S94Y, P96Y
notes: chimeric
B4: anti-GPNMB antibody GPN-22 (antibody, human IgG1, V domains shown)
VH: QVQLQQPGAERVKPGASVKMSCKASGYTFTSYWITWVKQRPGQGLEWIGDIFPGSGSTNYHEKFKSKATLTVDTSSSTAYMQLSSLTSEDSAVYYCSRGYFGSSFSDYWGQGTSVTVSS
VL: B2 VL with A25T, T92A, G100S
notes: chimeric
B5: anti-GPNMB antibody GPN-25 (antibody, human IgG1, V domains shown)
VH: B3 VH with R38K, S54G, T55S, N77S, F80Y, M81L, D104A
VL: B2 VL with L21F, T22I, Y32H, S50A, T51A, T92A, S94Y, P96Y
notes: chimeric
B6: anti-GPNMB antibody GPN-31 (antibody, human IgG1, V domains shown)
VH: B3 VH with R38K, S44N, S54N, I57G, N77T, F80Y, A97T
VL: B2 VL with Y32H, S50A, T51A, S65R, T92A, S94Y, P96Y, E105A
notes: chimeric
B7: anti-GPNMB antibody GPN-01 (antibody, human IgG1, V domains shown)
VH: QVQLQQSGAELAKPGASVKLSCKASGYNFTNYCIHWVKQRPGQGLEWIGYINPSTGYTEYNQKFKDKATLTADKSSTTAYMQLSSLTSEDSAVYYCARGRYDEFTYWGQGTLVTVSA
VL: DIVLTQSPASLAVSLGQRATISCRASKSVSTSTYSYMHWYQQKPGQPPKLLIYLASNLESGVPARFSGSGSGTDFTLNIHPVEEEDAATYYCQHSRELPPTFGGGTKLEIK
notes: chimeric
B8: anti-GPNMB antibody GPN-11 (antibody, human IgG1, V domains shown)
VH: QVQLQQPGAELVKPGASVKLSCKASGYTFTSYWMHWVKQRPGQGLEWIGEINSSNGRTNYNEKFKTKATLTVDRSSSTAYMQLSSLTSEDSAVYYCARLGYYSGSPYPYYAMDCWGQGTSVTVSS
VL: DIQMTQSPASLSVSVGETVTITCRASENIYSNLAWYQQKQGKSPQLLVYAATNLADGVPSRFSGSGSGTQYSLKINSLQSEDFGSYYCQHFWNTPPTFGGGTKLEIK
notes: chimeric

The first test deals with T1, soluble human GPNMB (recombinant …). As to the kind of experiment: SPR Carterra, Ab immobilized. The method, then:
(§1) Binding kinetics of human anti-GPNMB IgG1 antibodies of the present disclosure to human, cynomolgus, and mouse GPNMB were evaluated using a Carterra LSA instrument (Carterra, Salt Lake City, UT). […] A HC200M sensor chip (Carterra) was activated using the single channel flow cell with a 7-minute injection of a 1:1:1 mixture of 100 mM MES pH 5.5, 100 mM sulfo-NHS, 400 mM EDC (all reconstituted in MES pH 5.5; 100 μl of each mixed in vial immediately before running assay). After switching to the multi-channel array flow cell, the antibodies were injected over the activated chip in a 96-spot array for 15 minutes. The remaining unconjugated active groups on the chip were then blocked by injecting 1M Ethanolamine pH 8.5 (Carterra) for 7 minutes using the single channel flow cell.
(§2) After priming with running buffer (HBS-EP+, Teknova) with 0.5 mg/ml BSA (Sigma), the immobilized anti-GPNMB antibodies were tested for their ability to bind to several forms of recombinant GPNMB extracellular domain, including human, cynomolgus, and mouse orthologs as described above. Estimates of affinity were generated by injecting each analyte over the entire antibody array using the single channel flow cell. GPNMB analytes were diluted to 2.5, 7.4, 22, 67, 200, and 600 nM in running buffer, and injected in serial from lowest to highest concentration without regeneration. Two buffer blanks were run between each series (one species per series). Data were processed and analyzed using Kinetics high-throughput kinetics analysis software (Carterra).
Turning to B1, the Kd came to 1 nM, the koff was 0.00011 s⁻¹ and the kon came to 110000 M⁻¹ s⁻¹.

With B2, the Kd was 8.8 nM, the koff is 0.00057 s⁻¹ and the kon is 69000 M⁻¹ s⁻¹.

Turning to B3, the Kd came to 11.1 nM, the koff was determined as 0.00027 s⁻¹ and the association rate constant (kon) came out at 27000 M⁻¹ s⁻¹.

As to B4, the Kd came to 120 nM, the koff was determined as 0.0034 s⁻¹ and the kon worked out at 28000 M⁻¹ s⁻¹.

B5: the Kd came out at 11.4 nM, the koff was 0.00028 s⁻¹ and the kon was determined as 26000 M⁻¹ s⁻¹.

As for B6, the Kd was 11.7 nM, the koff came to 0.00028 s⁻¹ and the kon worked out at 26000 M⁻¹ s⁻¹.

Turning to B7, the Kd was determined as 42.5 nM, the koff turned out to be 0.0038 s⁻¹ and the kon was found to be 91000 M⁻¹ s⁻¹.

As for B8, the Kd was 14.4 nM, the koff was 0.00095 s⁻¹ and the kon is 69000 M⁻¹ s⁻¹.

The next test has as its target T2, soluble cynomolgus GPNMB (recombinant …). Kind of test: SPR Carterra, Ab immobilized. On the procedure: as §1, §2
Take B2: the Kd is 8.3 nM, the koff stood at 0.00061 s⁻¹ and the on-rate constant (kon) worked out at 77000 M⁻¹ s⁻¹.

Take B3: the Kd stood at 8.9 nM, the koff came out at 0.00027 s⁻¹ and the kon amounted to 31000 M⁻¹ s⁻¹.

With B4, the Kd turned out to be 104 nM, the koff is 0.0033 s⁻¹ and the kon came out at 32000 M⁻¹ s⁻¹.

Consider B5, for which the Kd was 7.4 nM, the koff was determined as 0.0002 s⁻¹ and the kon turned out to be 30000 M⁻¹ s⁻¹.

B6: the Kd is 11.2 nM, the dissociation rate constant (koff) was determined as 0.00036 s⁻¹ and the kon amounted to 32000 M⁻¹ s⁻¹.

As to B7, the Kd came to 31 nM, the koff was determined as 0.0034 s⁻¹ and the kon was 110000 M⁻¹ s⁻¹.

On to B8, for which the Kd is 12.1 nM, the koff was found to be 0.00095 s⁻¹ and the kon amounted to 83000 M⁻¹ s⁻¹.

Another test deals with T3, mouse GPNMB endogenously expressed on …. Kind of test: FACS on B16F10 mouse melanoma cells (endogenous mouse GPNMB); single antibody concentration (not given); APC anti-human IgG secondary; MFI as fold over background. On the procedure:
(§3) Recombinant anti-GPNMB antibodies of the present disclosure were examined for their ability to bind human and/or mouse GPNMB expressed on Freestyle293-huGPNMB+ or B16F10 cells, respectively. B16F10 cells are a murine melanoma cell line from a C57BL/6J mouse that endogenously express high levels of mouse GPNMB. The antibodies were also tested for their ability to bind to a human macrophage cell line (U937 cells) engineered to express human GPNMB. Cells were harvested, plated at 100,000 cells/well in a 96-well round bottom plate, and incubated in 100 μl FACS buffer (PBS containing 2% FBS, 2 mM EDTA) containing anti-GPNMB monoclonal antibodies of the present disclosure for 30 minutes on ice. Cells were then washed and incubated in 100 ul FACS buffer containing 1 μg/ml APC-conjugated anti-human IgG secondary antibody for 30 minutes in ice. Cells were washed twice in cold FACS buffer and acquired on a BD FACS Canto. Data analysis and calculation of MFI values was performed with FlowJo (TreeStar) software version 10.0.7. […]
For B1, the binding result is reported as “no binding”.

Take B2: the binding result is given as “no binding”.

B3: the binding result is recorded as “no binding”.

Turning to B4, the binding result is on record as “no binding”.

As for B5, the binding result is “no binding”.

B6: the binding result is reported as “no binding”.

For the molecule B7, the binding result is given as “no binding”.

For B8, the binding result is “no binding”.

Another test shares this target. Kind of test: FACS, B16F10 cells. The method, then: as §3
For orientation: A flow cytometer gives signals particle by particle.
Regarding B1, the “MFI fold over background” value amounted to 0.8 fold.

With B2, the “MFI fold over background” value was 1 fold.

Take B3: the “MFI fold over background” value was determined as 1 fold.

For B4, the “MFI fold over background” value came to 1 fold.

On to B5, for which the “MFI fold over background” value worked out at 1 fold.

In the case of B6, the “MFI fold over background” value turned out to be 1 fold.

As for B7, the “MFI fold over background” value was found to be 1 fold.

For the molecule B8, the “MFI fold over background” value came out at 1 fold.
